Measurements: patent US20230227537A1
Where “and” joins values, the source holds several entries; their conditions need not be identical. Equal entries are not always repeated.

Assays:
[1] = target: SARS-Cov-1 RBD displayed on S. cerevisiae
[2] = target: GD-Pangolin RBD displayed on S. cerevisiae (GD-Pangolin coronavirus)
[3] = target: LYRa11 RBD displayed on S. cerevisiae (bat SARS-related coronavirus LYRa11); assay: flow cytometry, S. cerevisiae displaying the RBD, AF633 anti-human IgG [LYRa11]
[4] = target: WIV1 RBD displayed on S. cerevisiae (WIV1 (bat sarbecovirus)); assay: flow cytometry, S. cerevisiae displaying the RBD, AF633 anti-human IgG [WIV1]
[5] = target: RaTG13 RBD displayed on S. cerevisiae (bat coronavirus RaTG13); assay: flow cytometry, S. cerevisiae displaying the RBD, AF633 anti-human IgG [RaTG13]
[6] = target: WIV1-CoV RBD (WIV1-CoV (bat))
[7] = target: WIV1-CoV RBD (WIV1-CoV (bat)); assay: SPR, His-tagged VHH on NTA chip, RBD as analyte
[8] = target: Mouse IgG1 Fc fused SARS-CoV-2 RBD (Sino Biological) (SARS-CoV-2; mouse) (UniProt P0DTC2)

## S309 antibody
[1]
  EC50 (read off the curve): 0.5 mg/L
[2]
  EC50 (read off the curve): 1 mg/L
[3]
  EC50 (read off the curve): 0.8 mg/L
[4]
  EC50 (read off the curve): 0.7 mg/L
[5]
  EC50 (read off the curve): 0.8 mg/L

## SARS VHH-72
[6]
  koff: 0.0026 s⁻¹
  kon: 349000 M⁻¹ s⁻¹
[7]
  Kd: 0.00747 µM

## VHH72-W52aH-hIgG1 Fc (P. pastoris supernatant) (Fc fusion)
[8]
  % Signal decrease over 8 min dissociation: 49% and 51%
  Kd: 0.12 µM and 0.0922 µM
